Results taken from patent US20240116985A1 (published 2024).
Starred links: 1 amine or outer side, 2 acyl side, 3 side chain; linkers in the order of their positions; H or OH if unused. Positions of bridges follow the written chain, without caps; N, C: chain ends. Non-standard residues stand in square brackets, D forms with d. Primed or numbered codes have the meaning given here. B5(11) = 2,2-bis(4-pentenyl)glycine = 2-amino-2-(pent-4-en-1-yl)hept-6-enoic acid (stitching residue, bears both staples), C=CCCCC(CCCC=C)(N[*:1])C(=O)[*:2]; B5(16) = 2-amino-2-(pent-4-en-1-yl)hept-6-enoic acid = 2,2-bis(4-pentenyl)glycine (stitching residue), C=CCCCC(CCCC=C)(N[*:1])C(=O)[*:2]; B5(4) = 2,2-bis(4-pentenyl)glycine = 2-amino-2-(pent-4-en-1-yl)hept-6-enoic acid (stitching residue), C=CCCCC(CCCC=C)(N[*:1])C(=O)[*:2]; B5(5) = 2,2-bis(4-pentenyl)glycine, 2-amino-2-(pent-4-en-1-yl)hept-6-enoic acid (stitching residue), C=CCCCC(CCCC=C)(N[*:1])C(=O)[*:2]; SeN = (S)-5-(((allyloxy)carbonyl)(methyl)amino)-2-amino-2-methylpentanoic acid, C=CCOC(=O)N(C)CCC[C@](C)(N[*:1])C(=O)[*:2]; B5(9) = 2-amino-2-(pent-4-en-1-yl)hept-6-enoic acid (2,2-bis(4-pentenyl)glycine), C=CCCCC(CCCC=C)(N[*:1])C(=O)[*:2]; d(βAsp) = O=C(O)[C@@H](CC(=O)[*:2])N[*:1]; Phe(4-NH2) = Nc1ccc(C[C@H](N)C(=O)O)cc1; Phe(3-Me) = Cc1cccc(C[C@H](N)C(=O)O)c1; Bta = N[C@@H](Cc1csc2ccccc12)C(=O)O; αAllylPro = C=CC[C@@]1(C(=O)O)CCCN1; S8 = C=CCCCCCC[C@](C)(N)C(=O)O

T1: full-length beta-Catenin (Uniprot ID P35222) (Homo sapiens (Human), UniProt P35222 1-781)
T1 construct: the AlphaScreen used a Histidine (Nickel Chelate) detection kit, so a His tag is likely but not described; also called B-Catenin; bCat
T1 sequence: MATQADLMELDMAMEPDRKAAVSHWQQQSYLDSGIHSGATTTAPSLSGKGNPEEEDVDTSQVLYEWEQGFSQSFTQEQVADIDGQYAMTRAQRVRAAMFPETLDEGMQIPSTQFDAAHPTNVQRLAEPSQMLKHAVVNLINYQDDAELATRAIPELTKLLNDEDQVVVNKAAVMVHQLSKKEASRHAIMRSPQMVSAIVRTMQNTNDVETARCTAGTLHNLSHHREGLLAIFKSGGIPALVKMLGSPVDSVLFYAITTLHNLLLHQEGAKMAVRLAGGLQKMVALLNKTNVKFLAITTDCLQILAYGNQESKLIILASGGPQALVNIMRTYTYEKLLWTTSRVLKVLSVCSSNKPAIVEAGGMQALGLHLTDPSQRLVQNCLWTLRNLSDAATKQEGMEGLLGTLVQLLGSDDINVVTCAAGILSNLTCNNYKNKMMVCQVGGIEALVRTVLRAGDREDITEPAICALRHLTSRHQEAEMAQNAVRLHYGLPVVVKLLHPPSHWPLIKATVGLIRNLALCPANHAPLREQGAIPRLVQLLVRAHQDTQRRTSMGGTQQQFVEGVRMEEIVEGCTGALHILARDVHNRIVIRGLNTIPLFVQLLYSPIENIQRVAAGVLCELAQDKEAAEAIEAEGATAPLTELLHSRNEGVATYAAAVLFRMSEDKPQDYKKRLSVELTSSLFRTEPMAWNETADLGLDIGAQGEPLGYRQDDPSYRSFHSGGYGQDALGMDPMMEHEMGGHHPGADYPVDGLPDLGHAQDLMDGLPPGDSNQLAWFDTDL

T2: full-length beta-Catenin (Uniprot ID P35222) (Homo sapiens (Human), UniProt P35222 2-781)
T2 construct: 'mature' is the nearest allowed form; also called bCat; B-Catenin
T2 sequence: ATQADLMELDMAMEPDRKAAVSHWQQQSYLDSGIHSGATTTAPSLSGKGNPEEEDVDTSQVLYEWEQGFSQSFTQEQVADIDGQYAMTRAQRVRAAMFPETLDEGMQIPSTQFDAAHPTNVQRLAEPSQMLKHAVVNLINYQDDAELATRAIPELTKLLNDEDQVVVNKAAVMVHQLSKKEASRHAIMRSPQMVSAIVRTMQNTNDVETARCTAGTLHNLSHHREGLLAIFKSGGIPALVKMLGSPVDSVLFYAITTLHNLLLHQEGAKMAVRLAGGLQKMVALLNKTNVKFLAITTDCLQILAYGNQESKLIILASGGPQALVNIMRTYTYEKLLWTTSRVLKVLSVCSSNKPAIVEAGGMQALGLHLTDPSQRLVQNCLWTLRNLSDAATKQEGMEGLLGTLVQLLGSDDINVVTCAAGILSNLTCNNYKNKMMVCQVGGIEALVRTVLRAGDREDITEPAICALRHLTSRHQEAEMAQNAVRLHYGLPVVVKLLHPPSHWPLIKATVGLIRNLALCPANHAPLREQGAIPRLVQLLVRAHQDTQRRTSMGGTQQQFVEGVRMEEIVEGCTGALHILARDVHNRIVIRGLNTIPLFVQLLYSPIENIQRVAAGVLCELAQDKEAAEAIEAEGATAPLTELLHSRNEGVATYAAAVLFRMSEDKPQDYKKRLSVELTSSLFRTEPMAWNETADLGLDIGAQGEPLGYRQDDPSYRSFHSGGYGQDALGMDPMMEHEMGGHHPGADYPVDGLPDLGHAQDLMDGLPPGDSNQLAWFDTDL

T3: full-length beta-Catenin (Uniprot ID P35222) (Homo sapiens (Human), UniProt P35222 1-781)
T3 construct: Used full-length in the FP and AlphaScreen assays; also called B-Catenin; bCat
T3 sequence: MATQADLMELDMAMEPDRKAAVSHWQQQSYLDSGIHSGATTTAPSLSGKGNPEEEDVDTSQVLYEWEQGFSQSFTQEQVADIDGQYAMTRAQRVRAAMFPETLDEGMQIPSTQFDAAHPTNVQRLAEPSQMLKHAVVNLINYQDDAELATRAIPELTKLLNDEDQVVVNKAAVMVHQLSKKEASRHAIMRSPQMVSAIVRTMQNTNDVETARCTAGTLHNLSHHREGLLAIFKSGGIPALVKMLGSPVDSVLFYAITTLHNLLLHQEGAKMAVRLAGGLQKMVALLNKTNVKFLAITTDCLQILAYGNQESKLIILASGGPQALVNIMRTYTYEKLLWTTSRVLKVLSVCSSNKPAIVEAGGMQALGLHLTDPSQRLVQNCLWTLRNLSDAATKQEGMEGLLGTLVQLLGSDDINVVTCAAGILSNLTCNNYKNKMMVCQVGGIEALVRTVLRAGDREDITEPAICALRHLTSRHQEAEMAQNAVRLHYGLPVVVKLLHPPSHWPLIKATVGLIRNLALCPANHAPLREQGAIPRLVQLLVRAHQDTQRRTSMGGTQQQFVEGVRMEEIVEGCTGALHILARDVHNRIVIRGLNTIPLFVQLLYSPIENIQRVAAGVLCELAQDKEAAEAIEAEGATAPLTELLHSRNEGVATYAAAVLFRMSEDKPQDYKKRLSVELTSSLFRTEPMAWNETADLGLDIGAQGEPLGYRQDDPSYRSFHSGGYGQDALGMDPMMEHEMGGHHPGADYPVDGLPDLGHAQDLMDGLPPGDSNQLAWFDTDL

B1: I-322 (peptide)
peptide: Ac-[αAllylPro]DA[B5(11)]DDAA[Phe(4-NH2)]V[S8]FWQ-NH2
modifications: staple 1-4, 4-11; not fully specified; printed as Ac-PL3-Asp-Ala-B5-Asp-Asp-Ala-Ala-4AmPhe-Val-S8-Phe-Trp-Gln-NH2
notes: Ac-PL3-Asp-Ala-B5-Asp-Asp-Ala-Ala-4AmPhe-Val-S8-Phe-Trp-Gln-NH2; stapled peptide composition
B2: I-668 (peptide)
peptide: Ac-[αAllylPro][d(βAsp)]I[B5(9)]DEAAFQ[S8]F[Bta]Q-NH2
modifications: staple 1-4, 4-11
notes: Stapled peptide composition; earlier-eluting HPLC peak (staple isomer)
B3: I-652 (peptide)
peptide: Ac-[αAllylPro]DI[B5(16)]DESAFQ[S8]F[Bta]Q-NH2
modifications: staple 1-4, 4-11
notes: Stapled peptide composition; later-eluting HPLC peak (staple isomer)
B4: I-647 (peptide)
peptide: Ac-[αAllylPro]DI[B5(9)]DELAFQ[S8]F[Bta]Q-NH2
modifications: staple 1-4, 4-11
notes: as for B2
B5: I-648 (peptide)
peptide: Ac-[αAllylPro]DI[B5(9)]DELAFQ[S8]F[Bta]Q-NH2
modifications: staple 1-4, 4-11
notes: as for B3
B6: I-646 (peptide)
peptide: Ac-[αAllylPro]DI[B5(9)]DEAAFQ[S8]F[Bta]V-NH2
modifications: staple 1-4, 4-11
notes: as for B3
B7: I-650 (peptide)
peptide: Ac-[αAllylPro]DI[B5(16)]DEFAFQ[S8]F[Bta]Q-NH2
modifications: staple 1-4, 4-11
notes: as for B3
B8: I-649 (peptide)
peptide: Ac-[αAllylPro]DI[B5(9)]DEFAFQ[S8]F[Bta]Q-NH2
modifications: staple 1-4, 4-11
notes: as for B2
B9: I-651 (peptide)
peptide: Ac-[αAllylPro]DI[B5(16)]DESAFQ[S8]F[Bta]Q-NH2
modifications: staple 1-4, 4-11
notes: as for B2
B10: I-190 (peptide)
peptide: Ac-[αAllylPro]DI[B5(5)]DDAAFQ[SeN]FWH-NH2
modifications: staple 1-4, 4-11; not fully specified; printed as Ac-PL3-Asp-Ile-B5-Asp-Asp-Ala-Ala-Phe-Gln-SeN-Phe-Trp-His-NH2
notes: Stapled peptide composition

Molecular target: T1, full-length beta-Catenin (Uniprot ID …)
Experiment: FP competition vs 5FAM-TCF4(10-53) probe on full-length beta-catenin
Protocol: (§1) The plate was incubated protected from light for 60 minutes at 20° C. prior to read. Reads were performed on a CLARIOstar plate reader (BMG Labtech) in duplicate, and data were fitted to a 1:1 binding model with hill slope using an in-house script. All provided concentrations are final concentrations.

Row | EC50 | Binder
1 | 5 µM | B1

Molecular target: T2, full-length beta-Catenin (Uniprot ID …)
Experiment: fluorescence polarization competition, full-length beta-catenin with 5FAM-TCF4(10-53) probe as competitor
Protocol: as §1

Row | EC50 | Binder
2 | 0.675 µM | B2
3 | 0.072 µM | B3
4 | 0.445 µM | B4
5 | 0.233 µM | B5
6 | 0.461 µM | B6
7 | 0.137 µM | B7
8 | 0.395 µM | Ac-[αAllylPro]DI[B5(9)]DEAAFQ[S8]F[Bta]V-NH2 (staple 1-4, 4-11, Stapled peptide composition) [I-645]
9 | 0.209 µM | B8
10 | 0.186 µM | B9

Molecular target: T3, full-length beta-Catenin (Uniprot ID …)
Experiment: fluorescence polarization competition; full-length beta-catenin + 5FAM-TCF4(10-53) probe as competitor; peptide titrated
Protocol: as §1

Row | EC50 | Binder
11 | 1.75 µM | Ac-[αAllylPro]DA[B5(4)]DEAA[Phe(3-Me)]V[S8]FWQ-NH2 (staple 1-4, 4-11, Stapled peptide composition) [I-207]
12 | 1.75 µM | Ac-[αAllylPro]DA[B5(4)]DEAA[Phe(3-Me)]V[S8]FWQ-NH2 (staple 1-4, 4-11, Stapled peptide composition) [I-208]
13 | 0.696 µM | B10

Molecular target: T3, full-length beta-Catenin (Uniprot ID …)
Experiment: AlphaScreen (nickel chelate) competition; full-length beta-catenin + biotin-TCF4(10-53) probe as competitor; peptide titrated
Protocol: as §1, with “Equal volume of the titrated peptide was added to the” for “The”, “and” for “was”, “incubated for 15 minutes at 20° C. Then 4 uL of donor and 4 uL acceptor beads at 10 ug/mL were added to the plate, for a 16 uL reaction pool and” for “incubated”

Row | EC50 | Binder
14 | 0.143 µM | Ac-[αAllylPro]DA[B5(4)]DEAA[Phe(3-Me)]V[S8]FWQ-NH2 (staple 1-4, 4-11, Stapled peptide composition) [I-207]
15 | 0.143 µM | Ac-[αAllylPro]DA[B5(4)]DEAA[Phe(3-Me)]V[S8]FWQ-NH2 (staple 1-4, 4-11, Stapled peptide composition) [I-208]
16 | 0.094 µM | B10
